Experimental data reported in publication PMC3869376.

Experiments:
[1] = target: 14-3-3β (UniProt P31946); assay: DIG-GST-14-3-3β overlay on blotted immunoprecipitated PDE3B; details: reference: HA-PDE3B wild type; sites S318
[2] = target: 14-3-3β (UniProt P31946); assay: GST-14-3-3β pull-down from cell lysate; details: reference: HA-PDE3B wild type; sites S318

Chain of 14-3-3β (P31946 whole entry, looked up): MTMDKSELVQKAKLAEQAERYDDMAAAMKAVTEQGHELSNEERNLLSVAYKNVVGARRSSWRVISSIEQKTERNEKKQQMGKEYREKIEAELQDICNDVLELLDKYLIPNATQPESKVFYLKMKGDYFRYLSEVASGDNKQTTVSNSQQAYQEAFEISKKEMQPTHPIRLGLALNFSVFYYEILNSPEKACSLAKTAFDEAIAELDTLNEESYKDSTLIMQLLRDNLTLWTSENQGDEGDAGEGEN

## PDE3B (phosphodiesterase 3B) (from UniProt Q13370-2) HA-PDE3B S318A
[1]
  binding against the reference: lost
[2]
  binding against the reference: lost
